This passage reports average RU of TGFβ binding results from patent US20210355204A1.

Among the targets are TGFβ1 (human) (UniProt P01137); TGFβ2 (human) (UniProt P61812); TGFβ3 (human) (UniProt P10600).
Common to all, as to test: SPR competition: 4 nM TGFβ pre-mixed with TGFβ-RIIb-Fc, injected over immobilised XPA.42.089 (competitor)

For “TGFβ-RIIb-Fc recombinant receptor (from UniProt P37173 23-184) (Fc fusion)”, the values for the average RU of TGFβ binding with TGFβ1 (human), with TGFβ2 (human) and in the experiment with TGFβ3 (human) were -0.316 RU, 38.2 RU and -0.378 RU, respectively.
